The record followed here is US20050191293A1 (Bristol-Myers Squibb, published 2005).

Several values for one entry are separate records, joined by “and”; a condition that tells them apart may be missing. Equal values may be shown once.

Experiment [1] addresses T1, human IP-10 (interferon gamma inducible protein 10) (human, UniProt P02778 22-98).
T1 construct: Native IP-10 from THP-1 supernatant and from MS patient CSF in the migration assays is also put under this molecule; also called CXCL10; rhIP-10
Put plainly: SPR (Biacore), extension of dissociation curve, 25 C. On the procedure: (§1) Binding was measured by flowing the antibody in HBS EP buffer (provided by Biacore AB) at concentrations from 33-267 nM at a flow rate of 40 μl/min. The antigen-antibody association kinetics was followed for 5 minutes and the dissociation kinetics was followed for 8 minutes. The association and dissociation curves were fit to a 1:1 Langmuir binding model using BIAevaluation software (Biacore AB). Data corresponding to the initial few dozen seconds for association and dissociation phases alone were considered for curve fitting to minimize the effect of avidity. The experiments were performed at both 25° C. and 37° C.
(§2) The values were determined by extension of the dissociation curves to get to the time required for the 50% reduction of the Y-axis of the dissociation sensogram.

The target of experiment [2] is T2, human MIG (monokine induced by gamma interferon) (human, UniProt Q07325 23-125).
T2 construct: Bought (PeproTech 300-26; R&D Systems for the migration assay)
T2 sequence: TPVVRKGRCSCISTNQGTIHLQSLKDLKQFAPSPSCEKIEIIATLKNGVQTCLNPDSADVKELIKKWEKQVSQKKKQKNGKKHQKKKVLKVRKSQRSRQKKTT
Put plainly: ELISA, plate coated with 1 ug/ml antigen. On the procedure: (§3) The plates were washed with PBS/Tween and then incubated with a goat-anti-human IgG Fc polyclonal antibody conjugated with horseradish peroxidase (HRP) for 1 hour at room temperature. After washing, the plates were developed with ABTS substrate (Sigma, A-1888, 0.22 mg/ml) and analyzed by spectrophotometer at OD 415-495.
A general note: An ELISA detects its analyte on a solid surface through an enzyme-linked reagent.

Experiment [3] deals with T1, human IP-10 (interferon gamma inducible …). Put plainly: ELISA, plate coated with 1 ug/ml antigen. On the procedure:
as §3

The target in experiment [4] is T3, rhesus monkey IP-10 (rhesus monkey, UniProt Q8MIZ1 22-98).
T3 construct: Made by recombinant expression and purified by standard methods; also called Rhesus IP-10; rrmIP-10
T3 sequence: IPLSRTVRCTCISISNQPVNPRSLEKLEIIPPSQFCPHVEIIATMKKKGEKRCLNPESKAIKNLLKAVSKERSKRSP
In words: ELISA, plate coated with 1 ug/ml antigen. On the procedure: as §3

For experiment [5], the target named is T2, human MIG (monokine induced by gamma …). In words: SPR (Biacore), antigen on CM5 chip, antibody 133 nM, 25 C. On the procedure:
(§4) The flow was then stopped and dissociation was monitored for 5 minutes. The association and dissociation curves were fit to a Langmuir binding model using BIAevaluation software (Biacore AB).

Experiment [6] concerns the target T3, rhesus monkey IP-10. Described as above. On the procedure: as §4
Experiment [7] concerns the target T1, human IP-10 (interferon gamma inducible …). Put plainly: SPR (Biacore), human IP-10 on CM5 chip, 37 C. On the procedure:
as §1

The target is the same in experiment [8]. In words: cell-based or functional assay.
The target is the same in experiment [9]. In words: SPR (Biacore), extension of dissociation curve, 37 C. On the procedure:
as §1, §2
(In general: SPR reads the build-up and loss of mass on a sensor chip optically.)

Experiment [10] concerns the target T4, mouse IP-10 (mouse, UniProt P17515 22-98).
T4 construct: Bought (PeproTech 250-16)
T4 sequence: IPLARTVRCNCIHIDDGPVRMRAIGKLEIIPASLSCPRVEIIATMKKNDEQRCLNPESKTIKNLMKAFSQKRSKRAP
In words: SPR (Biacore), antigen on CM5 chip, 25 C. On the procedure: as §4

Experiment [11] has as its target T5, human ITAC (interferon-inducible T cell alpha chemoattractant) (human, UniProt O14625 22-94).
T5 sequence: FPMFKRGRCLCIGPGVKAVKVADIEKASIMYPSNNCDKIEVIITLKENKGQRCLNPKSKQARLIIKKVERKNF
Put plainly: SPR (Biacore), antigen on CM5 chip, 25 C. On the procedure: as §4

The target in experiment [12] is T1, human IP-10 (interferon gamma inducible …). Put plainly: SPR (Biacore), human IP-10 on CM5 chip, 25 C. On the procedure: as §1
The target is the same in experiment [13]. Put plainly: inhibition of 0.100 nM 125I-IP-10 binding to CXCR3-expressing 300.19 cells. On the procedure: The cells were grown in RPMI media containing 10% FCS and G418 selection. Prior to use, the cells were washed twice with Hank's Balanced Salt Solution (HBSS) at 4° C. and adjusted to 4×10⁷ cells/ml. Glass fiber plates (Millipore MultiScreen®, Cat. #MAFBNOB50) were blocked with 200 μl of a 0.1% polyethyleneimine solution one day prior to the experiment. On the day of the study, the blocking buffer was aspirated by using a Millipore manifold. The plates were washed three times with 200 μl of binding buffer (50 mM HEPES, pH 7.2, 1 mM CaCl₂, 5 mM MgCl₂, 0.5% BSA). […] The plates were incubated on a plate shaker for 60 minutes at room temperature and washed three times with wash buffer (10 mM HEPES, pH 7.2, 0.5 M NaCl, 0.5% BSA) at a volume of 200 μl per wash. The plates were dried, 25 μl of scintillant was added and the plates were counted on a Wallac Microbeta Counter. Data were analyzed using Prism software and a KD was calculated.
Competition assays were run in a similar manner to the experiment described above. […] Lastly, 25 μl of cells at a density of 1×10⁶ cells per well were added and the plates were incubated on a plate shaker for 60 minutes at room temperature, washed and counted as described above. EC₅₀ values were calculated using Prism software. Kᵢ values (in nM) were determined using the formula: […]

Experiment [14] has as its target T5, human ITAC (interferon-inducible T cell …). In words: SPR (Biacore), antigen on CM5 chip, antibody 133 nM, 25 C. On the procedure:
as §4

For experiment [15], the target named is T1, human IP-10 (interferon gamma inducible …). In words: cell-based or functional assay. This is another data set of the same source.
For experiment [16], the target named is T3, rhesus monkey IP-10. In words: cell-based or functional assay.
In experiment [17] the target is T2, human MIG (monokine induced by gamma …). Put plainly: SPR (Biacore), antigen on CM5 chip, 25 C; sample 6A5 Batch 2. On the procedure: as §4
The target in experiment [18] is T1, human IP-10 (interferon gamma inducible …). In words: cell-based or functional assay. The source holds these as a separate data set.
Experiment [19] concerns the target T4, mouse IP-10. In words: SPR (Biacore), antigen on CM5 chip, 25 C; sample 6A5. On the procedure:
as §4

Experiment [20] deals with T5, human ITAC (interferon-inducible T cell …). Described as above. On the procedure:
as §4

T1 sequence (P02778 other isoform, or with tags, fused parts or gaps limits assumed): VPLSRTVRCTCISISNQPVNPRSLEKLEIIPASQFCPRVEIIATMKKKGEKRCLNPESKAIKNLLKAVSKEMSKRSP

B1: 2G1 human monoclonal antibody (antibody, V domains shown)
VH: QVQLVESGGGVVQPGRSLRLSCAASGFTFSNCGMHWVRQAPGKGLEWVALIGYDGINEYYADSVKGRFTISRDNSKNTLYLQMNSLRAEDTAVFYCARDWPEGYYNGMDVWGQGTTVTVSS
VL: not shown
notes: Human IgG with kappa light chain from a hybridoma of transgenic mice
The EC50 is the concentration that produces a half-maximal response. By Kd is commonly meant the equilibrium constant for the complex coming apart. What is called koff is a measure of how fast the partners let go of each other. A word on the kon: it is a measure of how fast the partners come together. The term Ki denotes the equilibrium dissociation constant of an inhibitor or competing ligand from its target. For B1, the results for the “Half-life (dissociation of half of the antibody-antigen complex)” value (“Half-life” for short) in experiment [1] and in experiment [9] were 25.7 h and 3.87 h, respectively. For the same molecule, the figures for the EC50 in experiment [2], in experiment [3] and in [4] were 0.045 µg/mL, 0.03 µg/mL and 0.03 µg/mL, respectively. Besides, the Kd is 70.1 nM in [5], 0.26 nM in experiment [6], 0.34 nM in experiment [7] and roughly 0.198 nM in experiment [12]. The values for the koff in [7] and in experiment [12] were 4.97e-05 s⁻¹ and 7.5e-06 s⁻¹, respectively. Moreover, the kon in experiment [7] was 148000 M⁻¹ s⁻¹; in experiment [12], 37800 M⁻¹ s⁻¹. In addition, the “IC50 (nM) for 300.19 Cells: inhibition of IP-10-induced calcium flux in 300.19 cells transfected to express CXCR3” value in [8] is 0.5 nM. The “IC50 (nM) for HPBL: inhibition of IP-10-induced calcium flux in anti-CD3 activated human PBLs that express CXCR3” value in [8] amounted to 2.98 nM. Moreover, the binding result in experiment [10] and in [11] was “no binding (tested: 133 nM)” throughout. This molecule had a Ki in experiment [13] of 0.09 nM.

B2: 6B10 human monoclonal antibody (antibody, V domains shown)
VH: QVQLVESGGGVVQPGRSLRLSCAASGFTFSNSAMHWVRQAPGKGLEWVALIPFDGYNKYYADSVKGRFTISRDNSKNTLYLQMNSLRAEDTAVYYCAREGGYTGYDGGFDYWGQGILVTVSS
VL: EIVLTQSPATLSLSPGERATLSCRASQSVSSYLAWYQQKPGQAPRLLIYDASNRATGIPARFSGSGSGTDFTLTISSLEPEDFAVYYCQQRSNWPPYTFGQGTKLEIK
notes: as for B1
Consider B2, for which the “Half-life” value was determined as 1.12 h in experiment [1] and 0.38 h in experiment [9]. The EC50 was 0.02 µg/mL in experiment [2], 0.03 µg/mL in experiment [3] and 0.045 µg/mL in experiment [4]. The Kd amounted to 51.5 nM in [14]; 15.4 nM in [5]; 2.01 nM in experiment [6]; 2.54 nM in experiment [7]; 1.78 nM in experiment [12]. In addition, the koff in experiment [7] came to 0.000504 s⁻¹; in [12], 0.000172 s⁻¹. Further, the figures for the kon in experiment [7] and in [12] were 199000 M⁻¹ s⁻¹ and 95000 M⁻¹ s⁻¹, respectively. Also, in [8], the “IC50 (nM) for 300.19 Cells: inhibition of IP-10-induced calcium flux in 300.19 cells transfected to express CXCR3” value is 0.5 nM. In experiment [8], the “IC50 (nM) for HPBL: inhibition of IP-10-induced calcium flux in anti-CD3 activated human PBLs that express CXCR3” value came to 4.4 nM. Further, the “THP-1 IP-10 IC50: inhibition of migration of CXCR3-expressing 300.19 cells induced by native IP-10 in THP-1 supernatant, MIG blocked by anti-MIG” value in experiment [15] worked out at 0.193 µg/mL. Also, in experiment [15], the “rhIP-10 IC50: inhibition of migration of CXCR3-expressing 300.19 cells induced by 100 ng/ml recombinant human IP-10” value was determined as 1.1 µg/mL. The “rrmIP-10 IC50: inhibition of migration of CXCR3-expressing 300.19 cells induced by 100 ng/ml recombinant rhesus macaque IP-10” value in experiment [16] was 0.149 µg/mL. This molecule also displayed a Ki in experiment [13] of 0.3 nM.

B3: 6A5 human monoclonal antibody (antibody, V domains shown)
VH: QMQLVESGGGVVQPGRSLRLSCTASGFTFSNNGMHWVRQAPGKGLEWVAVIWFDGMNKFYVDSVKGRFTISRDNSKNTLYLEMNSLRAEDTAIYYCAREGDGSGIYYYYGMDVWGQGTTVTVSS
VL: not shown
notes: Human IgG with kappa light chain from a hybridoma; also called 6A5 Batch 2; 6A5 (Batch 2)
Take B3: the “Half-life” value in experiment [1] is 5.29 h and 6.21 h. Also, in experiment [17], the binding result was “no binding (tested: 133 nM)”. Besides, the EC50 in experiment [3] was 0.035 µg/mL and 0.062 µg/mL. Moreover, the EC50 in experiment [4] was 0.125 µg/mL and 0.09 µg/mL. For the same molecule, the Kd in [6] is 1.06 nM and 1.23 nM. Also, in [7], the Kd is 0.7 nM and 0.74 nM; the koff is 7.15e-05 s⁻¹ and 6.26e-05 s⁻¹; the kon is 102000 M⁻¹ s⁻¹ and 84100 M⁻¹ s⁻¹. Also, in experiment [8], the “IC50 (nM) for 300.19 Cells: inhibition of IP-10-induced calcium flux in 300.19 cells transfected to express CXCR3 (sample 6A5)” value worked out at 0.61 nM, the “IC50 (nM) for 300.19 Cells: inhibition of IP-10-induced calcium flux in 300.19 cells transfected to express CXCR3 (sample 6A5 Batch 2)” value was 0.42 nM, the “IC50 (nM) for HPBL: inhibition of IP-10-induced calcium flux in anti-CD3 activated human PBLs that express CXCR3 (sample 6A5)” value was found to be 2.85 nM and the “IC50 (nM) for HPBL: inhibition of IP-10-induced calcium flux in anti-CD3 activated human PBLs that express CXCR3 (sample 6A5 Batch 2)” value is 2.18 nM. In addition, in experiment [9], the “Half-life” value was 2.69 h and 3.87 h. In addition, in experiment [15], the “THP-1 IP-10 IC50: inhibition of migration of CXCR3-expressing 300.19 cells induced by native IP-10 in THP-1 supernatant, MIG blocked by anti-MIG (sample 6A5 (Batch 2))” value was 0.132 µg/mL and the “rhIP-10 IC50: inhibition of migration of CXCR3-expressing 300.19 cells induced by 100 ng/ml recombinant human IP-10 (sample 6A5 (Batch 2))” value was found to be 0.156 µg/mL. Further, the “rrmIP-10 IC50: inhibition of migration of CXCR3-expressing 300.19 cells induced by 100 ng/ml recombinant rhesus macaque IP-10 (sample 6A5 (Batch 2))” value in [16] was determined as 0.119 µg/mL. In experiment [12], the Kd is 1.2 nM and 0.96 nM; the koff was 3.64e-05 s⁻¹ and 3.1e-05 s⁻¹; the kon was 31100 M⁻¹ s⁻¹ and 32000 M⁻¹ s⁻¹. In addition, the Ki in [13] is 0.67 nM and 0.35 nM. Further, in experiment [18], the “Expt. 1 IC50: inhibition of MS-CSF induced migration of CXCR3-expressing 300.19 cells, MIG neutralized by anti-MIG (sample 6A5 (Batch 2))” value is 0.1 µg/mL and the “Expt. 2 IC50: inhibition of MS-CSF induced migration of CXCR3-expressing 300.19 cells, MIG neutralized by anti-MIG (sample 6A5 (Batch 2))” value worked out at 0.236 µg/mL. Further, the binding result in [19] was “no binding (tested: 133 nM)”. The binding result in [20] is on record as “no binding (tested: 133 nM)”.
